Data taken from IntAct's records for PubMed 19135897.

B1: Mitochondrial Rho GTPase (Drosophila melanogaster (Fruit fly)), Q8IMX7 (parent)
chain: MGQYTASQRKNVRILLVGDAGVGKTSLILSLVSEEYPEEVPPRAEEITIPANVTPEQVPTSIVDFSAVEQSEDALAAEINKAHVVCIVYAVDDDDTLDRITSHWLPLVRAKCNPSLDGEGDAEAEAEGDTQREPIRKPIVLVGNKIDLIEYSTMDSVLAIMEDYPEIESCVECSAKSLHNISEMFYYAQKAVLHPTSPLYMMEEQELTSACKKSLVRIFKICDIDGDNLLNDYELNLFQRRCFNTPLQPQILDEVKAVIQKNVPDGIYNDAVTLKGFLFLHCLFIQRGRNETTWAVLRRFGYNDQLEMCQEYLRPPLKIPPGSSTELSHRGQQFLIAVFERYDRDGDGALSPEEHKMLFSTCPAAPWSYSTDIRKSCPINETTGWVTLHGWLCRWTLMTLIDVVKTMEYLAYLGFNVHENDSQLAAIHVTRERRIDLAKRQSSRSVYKCHVIGPKGSGKTGMCRGFLVEDMHKLIGKEFKTNVVNCINSVQVYGQEKHLILRDIDVRHALDPLQPQEVNCDVACLVYDSSNPRSFEYVARIYIKYYAESKIPVMIVGTKCDMDERRQDYLMQPSEFCDKYKLLPPHLFSLKTNKKELYTKLATMAAFPHLRQFGLMTEDPKLWLKAGLGVAAATMLGFIVLKTISAAGAHTR
B2: Mitochondrial Rho GTPase 1 (Homo sapiens), Q8IXI2 (parent)
chain: MKKDVRILLVGEPRVGKTSLIMSLVSEEFPEEVPPRAEEITIPADVTPERVPTHIVDYSEAEQSDEQLHQEISQANVICIVYAVNNKHSIDKVTSRWIPLINERTDKDSRLPLILVGNKSDLVEYSSMETILPIMNQYTEIETCVECSAKNLKNISELFYYAQKAVLHPTGPLYCPEEKEMKPACIKALTRIFKISDQDNDGTLNDAELNFFQRICFNTPLAPQALEDVKNVVRKHISDGVADSGLTLKGFLFLHTLFIQRGRHETTWTVLRRFGYDDDLDLTPEYLFPLLKIPPDCTTELNHHAYLFLQSTFDKHDLDRDCALSPDELKDLFKVFPYIPWGPDVNNTVCTNERGWITYQGFLSQWTLTTYLDVQRCLEYLGYLGYSILTEQESQASAVTVTRDKKIDLQKKQTQRNVFRCNVIGVKNCGKSGVLQALLGRNLMRQKKIREDHKSYYAINTVYVYGQEKYLLLHDISESEFLTEAEIICDVVCLVYDVSNPKSFEYCARIFKQHFMDSRIPCLIVAAKSDLHEVKQEYSISPTDFCRKHKMPPPQAFTCNTADAPSKDIFVKLTTMAMYPHVTQADLKSSTFWLRASFGATVFAVLGFAMYKALLKQR

Legend:
kinh_rat Kif5b, Q2PQA9 = variants of: B1; conditions: with kinh_rat Kif5b
Chain of kinh_rat Kif5b, Q2PQA9 (Q2PQA9 whole entry): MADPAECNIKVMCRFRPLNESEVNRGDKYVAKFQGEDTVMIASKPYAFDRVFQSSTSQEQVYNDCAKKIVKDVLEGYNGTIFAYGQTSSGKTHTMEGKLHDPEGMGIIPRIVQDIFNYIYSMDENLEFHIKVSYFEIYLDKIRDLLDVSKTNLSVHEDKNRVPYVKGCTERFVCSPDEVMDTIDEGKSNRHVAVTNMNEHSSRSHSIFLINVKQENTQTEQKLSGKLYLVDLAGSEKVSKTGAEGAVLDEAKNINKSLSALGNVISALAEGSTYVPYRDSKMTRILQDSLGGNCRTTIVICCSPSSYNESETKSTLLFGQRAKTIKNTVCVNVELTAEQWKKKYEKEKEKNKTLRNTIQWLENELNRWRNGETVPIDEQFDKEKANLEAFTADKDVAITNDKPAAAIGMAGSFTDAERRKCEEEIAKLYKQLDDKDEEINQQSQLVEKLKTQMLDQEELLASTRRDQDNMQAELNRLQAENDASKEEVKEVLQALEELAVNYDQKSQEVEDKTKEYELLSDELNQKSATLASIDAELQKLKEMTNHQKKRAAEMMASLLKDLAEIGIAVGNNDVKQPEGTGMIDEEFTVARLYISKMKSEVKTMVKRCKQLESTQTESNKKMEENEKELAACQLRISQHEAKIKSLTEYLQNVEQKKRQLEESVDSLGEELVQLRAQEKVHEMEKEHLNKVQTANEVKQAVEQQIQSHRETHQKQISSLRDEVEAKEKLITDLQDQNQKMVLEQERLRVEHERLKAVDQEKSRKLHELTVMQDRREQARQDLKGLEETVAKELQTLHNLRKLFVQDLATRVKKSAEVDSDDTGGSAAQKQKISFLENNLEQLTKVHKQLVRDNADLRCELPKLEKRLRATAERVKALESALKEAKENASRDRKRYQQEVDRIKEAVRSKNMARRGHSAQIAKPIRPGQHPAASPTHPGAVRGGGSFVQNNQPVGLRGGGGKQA

kif5c_rat Kif5c, P56536 [1] = variants of: B2; conditions: with kif5c_rat Kif5c
Chain of kif5c_rat Kif5c, P56536 (P56536 whole entry): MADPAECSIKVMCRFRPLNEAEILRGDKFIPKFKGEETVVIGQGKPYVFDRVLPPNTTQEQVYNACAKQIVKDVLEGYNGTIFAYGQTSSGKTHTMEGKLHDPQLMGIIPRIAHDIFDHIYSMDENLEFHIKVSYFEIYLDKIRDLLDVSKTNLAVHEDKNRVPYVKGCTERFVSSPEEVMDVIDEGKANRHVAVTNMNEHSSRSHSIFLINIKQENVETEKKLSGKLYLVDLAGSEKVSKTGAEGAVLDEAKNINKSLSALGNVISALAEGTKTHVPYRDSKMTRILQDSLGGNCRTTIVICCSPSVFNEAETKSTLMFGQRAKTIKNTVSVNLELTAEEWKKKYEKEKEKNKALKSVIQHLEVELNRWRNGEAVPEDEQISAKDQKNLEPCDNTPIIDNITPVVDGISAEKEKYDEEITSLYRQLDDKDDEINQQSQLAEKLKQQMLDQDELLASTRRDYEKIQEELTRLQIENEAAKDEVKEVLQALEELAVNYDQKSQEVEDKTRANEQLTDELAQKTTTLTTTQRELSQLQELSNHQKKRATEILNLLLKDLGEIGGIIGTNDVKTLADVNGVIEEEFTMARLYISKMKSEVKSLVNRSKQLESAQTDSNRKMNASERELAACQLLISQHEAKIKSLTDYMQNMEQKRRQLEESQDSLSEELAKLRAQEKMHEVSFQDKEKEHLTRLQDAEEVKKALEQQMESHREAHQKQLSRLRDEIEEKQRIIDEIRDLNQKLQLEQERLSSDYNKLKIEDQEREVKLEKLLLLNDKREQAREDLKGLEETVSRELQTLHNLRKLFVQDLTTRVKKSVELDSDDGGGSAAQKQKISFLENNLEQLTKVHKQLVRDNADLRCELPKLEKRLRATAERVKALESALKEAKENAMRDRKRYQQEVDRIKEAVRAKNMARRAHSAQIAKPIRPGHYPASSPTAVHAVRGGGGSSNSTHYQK

kif5c_rat Kif5c, P56536 [2] = variants of: B2; conditions: with kif5c_rat Kif5c; remark: listed apart in the source
[3] = variants of: B2; conditions: with kif5c_human KIF5C

effect of a mutation on the interaction (kinh_rat Kif5b, Q2PQA9)	effect of a mutation on the interaction (kif5c_rat Kif5c, P56536 [1])	effect of a mutation on the interaction (kif5c_rat Kif5c, P56536 [2])	effect of a mutation on the interaction [3]	Variant
decreasing interaction				E234K;D345K
	decreasing interaction	decreasing interaction	decreasing interaction strength	E208K;E328K
